In paper PMC7102599 (Cell, 2020):
“And” between values parts separate entries of the source, which are not always exact repeats. Equal values may be shown once.

Target: human angiotensin-converting enzyme 2 ectodomain (ACE2, residues 1-614) (human, UniProt Q9BYF1 18-614)
Experiment: BLI

Sequence of human angiotensin-converting enzyme 2 ectodomain (ACE2, residues 1-614) (Q9BYF1 18-614): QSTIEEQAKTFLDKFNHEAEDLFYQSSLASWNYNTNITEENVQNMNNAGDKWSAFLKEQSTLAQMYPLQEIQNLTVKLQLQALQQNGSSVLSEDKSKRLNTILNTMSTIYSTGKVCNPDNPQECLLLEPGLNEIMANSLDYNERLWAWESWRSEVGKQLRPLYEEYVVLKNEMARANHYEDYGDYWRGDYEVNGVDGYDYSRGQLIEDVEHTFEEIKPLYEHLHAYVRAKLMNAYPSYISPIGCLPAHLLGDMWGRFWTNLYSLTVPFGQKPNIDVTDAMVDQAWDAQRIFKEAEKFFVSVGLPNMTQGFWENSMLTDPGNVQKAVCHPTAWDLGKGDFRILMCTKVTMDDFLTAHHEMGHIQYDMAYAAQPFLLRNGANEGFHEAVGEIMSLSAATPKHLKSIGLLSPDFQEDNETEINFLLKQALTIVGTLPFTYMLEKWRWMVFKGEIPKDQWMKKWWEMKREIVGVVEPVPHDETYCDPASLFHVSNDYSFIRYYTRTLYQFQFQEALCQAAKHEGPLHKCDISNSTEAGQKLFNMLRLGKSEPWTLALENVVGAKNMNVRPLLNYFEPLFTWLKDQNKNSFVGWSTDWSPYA

B1: SARS-CoV S domain B (S^B), residues 306-575 (domain or fragment)
chain: not shown
Kd: 5 ± 0.1 nM | koff: 0.00087 s⁻¹ and 0.00071 s⁻¹ | kon: 170000 M⁻¹ s⁻¹
